Source: the supplement of paper PMC10126150
± gives the standard deviation of the averaged measurements.

Tested on: ATP
Assay: switch fluorescence ratio, 500 uM ATP over buffer (Cy3 cluster intensity, sum of 5 cycles each) (fold (ratio)); higher = stronger signal-on switching upon ATP binding; sequences stand for … in TCGTCGGCAGCGTCAGATGTGTATAAGAGACAGTTTTTTTTTTTTTTTTTTTTTTTTT…TC
Conditions: aptamer strand: ATP DNA aptamer (quencher-CACCTGGGGGAGTATTGCGGAGGAAGG + anchor), 100 nM annealed; ATP concentration: 500 uM
How it was run: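 Clusters carrying Cy3-labelled switching strands on a modified Illumina MiSeq flow-cell were annealed to 100 nM quencher-labelled ATP aptamer and imaged in selection buffer. They were imaged again after 15 min with 500 uM ATP at 22 °C, over five buffer/ATP cycles with NaOH stripping and re-annealing in between. For each cluster, the fluorescence ratio is the summed Cy3 intensity of the target cycles divided by that of the buffer cycles, averaged per switch-domain sequence. Clusters outside 100-1000 RFU were left out.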
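Note: ATP exposure 15 min at 22 °C before imaging.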

GGGGAGGAAG
switch fluorescence ratio: 0.997 ± 0.012

CGGAGGAATT
switch fluorescence ratio: 1.2 ± 0.11

AGTAACCAAG
switch fluorescence ratio: 1.01 ± 0.037

TGGGTTTGC
switch fluorescence ratio: 0.98 ± 0.054

AGGAGTATTA
switch fluorescence ratio: 0.983 ± 0.018

AGGGGGAGGC
switch fluorescence ratio: 1.01 ± 0.076

TTTGAATGGG
switch fluorescence ratio: 0.985 ± 0.029

TATAAAAACG
switch fluorescence ratio: 1.11 ± 0.2

TGGGTTATAG
switch fluorescence ratio: 0.9786 ± 0.0038

TAAATGGGGA
switch fluorescence ratio: 0.995 ± 0.025

ATTCTGTTTG
switch fluorescence ratio: 0.987 ± 0.043

ATAGTGGAGA
switch fluorescence ratio: 1.01 ± 0.024

TTGGGACGGG
switch fluorescence ratio: 0.994 ± 0.022

CCTCGGTTGG
switch fluorescence ratio: 1.011 ± 0.0035

AACTCCCTTT
switch fluorescence ratio: 1.067 ± 0.0086

GGATTTGTTA
switch fluorescence ratio: 0.983 ± 0.039

TTTTTCGCTG
switch fluorescence ratio: 1.03 ± 0.022

TGGGTTGGTT
switch fluorescence ratio: 1 ± 0.036

CGCGAAGGCT
switch fluorescence ratio: 1.04 ± 0.015

TATATTAGCC
switch fluorescence ratio: 1.03 ± 0.039

AGGTTCAACG
switch fluorescence ratio: 1.01 ± 0.028

TGATGGGGCA
switch fluorescence ratio: 1.02 ± 0.021

CGGTTTAGGT
switch fluorescence ratio: 0.951 ± 0.017

TTTCCGGATT
switch fluorescence ratio: 1.02 ± 0.059

GGGGACGTAT
switch fluorescence ratio: 1.01 ± 0.019

ATGGTGTGAG
switch fluorescence ratio: 1.02 ± 0.016

TGTGAACTTT
switch fluorescence ratio: 1.01 ± 0.012

TTTGATCGGG
switch fluorescence ratio: 0.978 ± 0.015

AGGGGTTCGG
switch fluorescence ratio: 0.992 ± 0.026

ATGGGAGGGA
switch fluorescence ratio: 1.01 ± 0.021

AGGTTTTTCG
switch fluorescence ratio: 1.03 ± 0.03

TTAAAGACCT
switch fluorescence ratio: 1.45 ± 0.042

CAGCTCATGC
switch fluorescence ratio: 1.0792 ± 0.00059

CATGAATATG
switch fluorescence ratio: 1.01 ± 0.03

AATTAGCTGC
switch fluorescence ratio: 1.04 ± 0.043

GTGATCGGGT
switch fluorescence ratio: 1.02 ± 0.015

AATCGTGTAG
switch fluorescence ratio: 1.04 ± 0.025

TTTAGGGGAG
switch fluorescence ratio: 0.994 ± 0.022

TTTTGGTTAC
switch fluorescence ratio: 1.04 ± 0.055

TTGTGCGTGG
switch fluorescence ratio: 0.971 ± 0.015

ATCCTAGGGC
switch fluorescence ratio: 1.007 ± 0.0095

GGAGGTTTAA
switch fluorescence ratio: 1.01 ± 0.024

TGACGCGTTT
switch fluorescence ratio: 1.02 ± 0.041

AAGTAGATCC
switch fluorescence ratio: 1.04 ± 0.044

TAGTTTCGGC
switch fluorescence ratio: 0.958 ± 0.011

CGTTCGTTCG
switch fluorescence ratio: 0.989 ± 0.015

TTTGCGAACA
switch fluorescence ratio: 1.06 ± 0.079

GCTGAGGGGG
switch fluorescence ratio: 0.991 ± 0.041

GACTAATTAA
switch fluorescence ratio: 0.978 ± 0.036

GAGTATTTAG
switch fluorescence ratio: 0.9801 ± 0.0093

CTAGCAACGT
switch fluorescence ratio: 1.03 ± 0.067

CTGGGGTAGG
switch fluorescence ratio: 1.04 ± 0.018

GGCAATAGGG
switch fluorescence ratio: 1.14 ± 0.056

GCAAAAGGGG
switch fluorescence ratio: 0.977 ± 0.027

CGGTGGCGTA
switch fluorescence ratio: 0.9975 ± 0.0035

CTGTAATTGG
switch fluorescence ratio: 1.006 ± 0.001

GACGTGATCC
switch fluorescence ratio: 2.5 ± 0.8

TAGCGGAAGT
switch fluorescence ratio: 0.999 ± 0.017

CTCTAGCCTC
switch fluorescence ratio: 1.176 ± 0.0012

TATACTTGCC
switch fluorescence ratio: 1.04 ± 0.06

TGGTGGGTTC
switch fluorescence ratio: 1.03 ± 0.067

TTACGGTAAT
switch fluorescence ratio: 1.143 ± 0.0043

TGTTGGTGGT
switch fluorescence ratio: 0.988 ± 0.036

ATTGGCTTT
switch fluorescence ratio: 0.9788 ± 0.0025

GAGGTTGCCG
switch fluorescence ratio: 0.951 ± 0.018

AGACTTTCTT
switch fluorescence ratio: 1.04 ± 0.02

TACGGGCTTA
switch fluorescence ratio: 1.007 ± 0.0044

CAAAGTTTCG
switch fluorescence ratio: 1.04 ± 0.0012

GGGAGTGAGG
switch fluorescence ratio: 1.01 ± 0.011

CCACTTATGC
switch fluorescence ratio: 1.13 ± 0.089

GAGGGGCGAT
switch fluorescence ratio: 0.998 ± 0.013

TTTGTTTGAT
switch fluorescence ratio: 0.999 ± 0.034

ATTGGGGTGC
switch fluorescence ratio: 0.992 ± 0.013

TGACTTGGCG
switch fluorescence ratio: 1.026 ± 0.0087

AGATATTGGC
switch fluorescence ratio: 1.03 ± 0.11

AAAAAACGTG
switch fluorescence ratio: 1.06 ± 0.091

ACATAGTTTT
switch fluorescence ratio: 0.9994 ± 0.0075

GTGTATAGGC
switch fluorescence ratio: 1.09 ± 0.038

GTGGGGCATA
switch fluorescence ratio: 0.982 ± 0.017

GAGGGCACGC
switch fluorescence ratio: 0.968 ± 0.06

AAGTGTAGAG
switch fluorescence ratio: 1.027 ± 0.0092

ATAAGCACTT
switch fluorescence ratio: 1.22 ± 0.027

GGATGACAGA
switch fluorescence ratio: 0.969 ± 0.01

GCCATGTCGA
switch fluorescence ratio: 0.9921 ± 0.0061

TACCACTGCG
switch fluorescence ratio: 1.04 ± 0.029

TAGTTACTGG
switch fluorescence ratio: 1.05 ± 0.021

GCAGTTGGGG
switch fluorescence ratio: 0.998 ± 0.032

GGCGGCGCAA
switch fluorescence ratio: 1.51 ± 0.16

TGGGGGCTTT
switch fluorescence ratio: 0.99 ± 0.023

GATTCGCTAA
switch fluorescence ratio: 1.12 ± 0.13

GGATCTGTCG
switch fluorescence ratio: 0.98 ± 0.037

GTGAGTGTTT
switch fluorescence ratio: 0.99 ± 0.011

ACAACGGGGT
switch fluorescence ratio: 1.01 ± 0.046

GTTAAAACTT
switch fluorescence ratio: 1.005 ± 0.0097

CTGTTATGTG
switch fluorescence ratio: 0.952 ± 0.015

AGGGAGAGTC
switch fluorescence ratio: 1.036 ± 0.0025

CAAGAGGGAC
switch fluorescence ratio: 1.04 ± 0.13

CGGGGCTTAT
switch fluorescence ratio: 0.9909 ± 0.0014

TACGCCTGCA
switch fluorescence ratio: 1.059 ± 0.0084

CGTTTAACTC
switch fluorescence ratio: 1.05 ± 0.055

ACGGTCCGGG
switch fluorescence ratio: 1.06 ± 0.036

TGGCACCATT
switch fluorescence ratio: 1.06 ± 0.047

AAACGAAAAA
switch fluorescence ratio: 1.04 ± 0.044

TGCTTGTGGG
switch fluorescence ratio: 1.026 ± 0.0015

CGGGTGCGTG
switch fluorescence ratio: 0.981 ± 0.017

TGCATTCATT
switch fluorescence ratio: 0.9937 ± 0.0093

CATATGGTTG
switch fluorescence ratio: 0.99 ± 0.018

AGTGGGGGGG
switch fluorescence ratio: 0.991 ± 0.049

TCGTGGGCGA
switch fluorescence ratio: 0.993 ± 0.011

TGACATGTAG
switch fluorescence ratio: 1.01 ± 0.052

CAGAGGGGAG
switch fluorescence ratio: 1.03 ± 0.027

GTAGTGCCAG
switch fluorescence ratio: 1.02 ± 0.042

GATGATGGGC
switch fluorescence ratio: 0.996 ± 0.035

ACTACATATG
switch fluorescence ratio: 1.03 ± 0.016

AAGGACAAGG
switch fluorescence ratio: 0.999 ± 0.043

TCTTTGTCTA
switch fluorescence ratio: 0.972 ± 0.02

TTTGTAGCTG
switch fluorescence ratio: 1.4 ± 0.046

ATGTATTGGT
switch fluorescence ratio: 0.991 ± 0.026

AAATCTCATC
switch fluorescence ratio: 1.03 ± 0.014

GACCGCAGCA
switch fluorescence ratio: 4.22 ± 0.49

TTAAGCGTTT
switch fluorescence ratio: 0.9948 ± 0.009

TCAGCGGGTT
switch fluorescence ratio: 1.04 ± 0.12

CGCGGTTCTG
switch fluorescence ratio: 1.01 ± 0.029

TTGTGATTGC
switch fluorescence ratio: 1.03 ± 0.089

GCCCCTTAGG
switch fluorescence ratio: 1.1 ± 0.045

TACGTTGACC
switch fluorescence ratio: 1.26 ± 0.016

GCGGGGGATG
switch fluorescence ratio: 1.01 ± 0.034

GAATCTGTGT
switch fluorescence ratio: 0.998 ± 0.031

CAATAGGGGC
switch fluorescence ratio: 0.969 ± 0.03

AGTCTAGGGC
switch fluorescence ratio: 1.04 ± 0.017

GAATTGGATG
switch fluorescence ratio: 0.965 ± 0.052

CAAAAAGAGT
switch fluorescence ratio: 1.014 ± 0.009

CGAGTACTGG
switch fluorescence ratio: 1.03 ± 0.016

AGTGCGTCTC
switch fluorescence ratio: 0.975 ± 0.012

TACTGGGGGT
switch fluorescence ratio: 1.04 ± 0.074

TATAAATGAA
switch fluorescence ratio: 0.9921 ± 0.0043

TGAGTCTAGG
switch fluorescence ratio: 0.9979 ± 0.0026

TTGCGACGGT
switch fluorescence ratio: 1.02 ± 0.023

GAGGCTGGTA
switch fluorescence ratio: 0.98 ± 0.028

TTAATGGAGG
switch fluorescence ratio: 1.04 ± 0.017

TATTCATCCA
switch fluorescence ratio: 1.01 ± 0.02

AACCTCTTAG
switch fluorescence ratio: 0.992 ± 0.026

GGATTAAAAG
switch fluorescence ratio: 1.01 ± 0.067

CGATTGCTAG
switch fluorescence ratio: 1.02 ± 0.058

AGGGTTTTGA
switch fluorescence ratio: 0.996 ± 0.054

GTTAGATGGG
switch fluorescence ratio: 1 ± 0.034

AGAAGTTGGG
switch fluorescence ratio: 0.993 ± 0.02

GAGGTCCAGC
switch fluorescence ratio: 1.14 ± 0.074

AGGGGGGCAA
switch fluorescence ratio: 1.03 ± 0.13

ACAGACTCGG
switch fluorescence ratio: 1.039 ± 0.0036

TCGTCCGAAG
switch fluorescence ratio: 1.45 ± 0.04

TGCGGTGATG
switch fluorescence ratio: 0.985 ± 0.016

TTCATGGTTT
switch fluorescence ratio: 1.01 ± 0.028

TGACGAGGTG
switch fluorescence ratio: 0.9816 ± 0.0051

CAACTATTTG
switch fluorescence ratio: 1 ± 0.013

TACGATATTT
switch fluorescence ratio: 1.099 ± 0.0068

ACTTGGGTAG
switch fluorescence ratio: 0.9928 ± 0.0011

AAGGCTTAGC
switch fluorescence ratio: 1.03 ± 0.039

CATCGCGGTT
switch fluorescence ratio: 1.07 ± 0.022

ACAAGTTCAG
switch fluorescence ratio: 0.993 ± 0.023

GGCGGGGTAG
switch fluorescence ratio: 0.996 ± 0.032

AGGATTGAGT
switch fluorescence ratio: 1.024 ± 0.0094

ATATATGCGG
switch fluorescence ratio: 1.11 ± 0.12

TTGGGGATGT
switch fluorescence ratio: 1 ± 0.031

TTACGCAATT
switch fluorescence ratio: 4.42 ± 0.59

CATGCGCTTC
switch fluorescence ratio: 2.39 ± 0.12

GCAGATCGTG
switch fluorescence ratio: 1.02 ± 0.026

TTGTTTTCGG
switch fluorescence ratio: 0.961 ± 0.02

TTTTGATCGG
switch fluorescence ratio: 0.982 ± 0.037

GGGGGGATGC
switch fluorescence ratio: 1.07 ± 0.13

GGTATTGTTG
switch fluorescence ratio: 1 ± 0.024

TCGAGGTTGC
switch fluorescence ratio: 0.993 ± 0.025

TCAGGGGTGC
switch fluorescence ratio: 1.09 ± 0.049

CGCGGGTAAC
switch fluorescence ratio: 1.036 ± 0.0077

GGAGGTGG
switch fluorescence ratio: 0.942 ± 0.026

AGGGAATAGA
switch fluorescence ratio: 0.989 ± 0.0094

TATTTGTTTG
switch fluorescence ratio: 0.984 ± 0.03

ACACGATGGG
switch fluorescence ratio: 1 ± 0.019

TGGGGGCGTA
switch fluorescence ratio: 0.9641 ± 0.0025

TTCGATTGTG
switch fluorescence ratio: 0.9867 ± 0.0088

TCTAAATCG
switch fluorescence ratio: 1.04 ± 0.055

AGCATGGTAT
switch fluorescence ratio: 1 ± 0.04

TTTGGGATTT
switch fluorescence ratio: 1.04 ± 0.15

GAGCTTTTGA
switch fluorescence ratio: 0.971 ± 0.04

AGGGGGGTT
switch fluorescence ratio: 1.01 ± 0.06

AGCATACCTT
switch fluorescence ratio: 1.11 ± 0.17

GGGGTGCGTG
switch fluorescence ratio: 0.984 ± 0.045

AATGTTGTGG
switch fluorescence ratio: 0.985 ± 0.031

AAAATTCGTA
switch fluorescence ratio: 1.028 ± 0.0022

CACTGAAGTT
switch fluorescence ratio: 1.026 ± 0.00036

GATGGGGGGG
switch fluorescence ratio: 1 ± 0.028

CAAAGTTGCG
switch fluorescence ratio: 0.984 ± 0.017

TTTGCGGGTT
switch fluorescence ratio: 1 ± 0.057

TAATATGTTC
switch fluorescence ratio: 1 ± 0.037

TGGGTAAAAA
switch fluorescence ratio: 0.995 ± 0.014

GTTAATGGAA
switch fluorescence ratio: 0.986 ± 0.039

AAGATTGTAA
switch fluorescence ratio: 0.996 ± 0.03

CGCGAAAGAA
switch fluorescence ratio: 0.9682 ± 0.0033

TGAGATTCCT
switch fluorescence ratio: 1.09 ± 0.034

TGGGATATAT
switch fluorescence ratio: 0.954 ± 0.034
